The record followed here is patent publication US20200165328A1 (Janssen / Centocor, published 2020).

By EC50 is commonly meant the concentration that produces a half-maximal response. Lower therefore signals a more potent agent. By EC50 (read off the curve) is commonly meant the midpoint of the concentration-response curve. Read a high EC50 (read off the curve) as weaker potency. Usually Kd stands for the free concentration of one partner at which half of the binding sites on the other are occupied at equilibrium, for simple one-to-one binding. A lower Kd goes with a tighter complex.

One experiment has as its target T1, rodent Aβ3pE-40 (rodent, UniProt P12023 674-711, pyroglutamate at the third residue of Aβ (N-terminal residue of this peptide)).
T1 construct: domain: Aβ3pE-40; Synthetic peptide
T1 peptide (looked up): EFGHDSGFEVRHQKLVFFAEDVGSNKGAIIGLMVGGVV
Briefly: sandwich ELISA, Aβ/pE3/1 coated, detection with JRF/cAβ40/28-HRPO. How it is done: (§1) Concentrations up to 10,000 […] were tested.
(§2) Standards were dissolved in dimethylsulphoxide (DMSO) (Sigma) at 0.1 mg/mL and stored at −80° C. For use in ELISA, peptides were further diluted in 0.1% casein in PBS down to 1 μg/mL. […] Standards were incubated overnight at 4° C. together with HRPO-labeled secondary antibody (JRF/cAβ40/28-HRPO or JRF/cAβ42/26-HRPO). After overnight incubation, plates were washed and the assay was developed with TMB peroxide EIA substrate kit (Biorad) according to the manufacturer's recommendations.
For orientation: In an ELISA, binding on a coated surface is turned into a signal by an enzyme label.

The target in the next experiment is T2, human Aβ3-42 peptide (human).
T2 construct: Synthetic peptide; also called N-truncated (Aβ3-42)
T2 sequence (peptide, as listed by the source): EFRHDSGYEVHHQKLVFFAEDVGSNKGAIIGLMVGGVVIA
Briefly: sandwich ELISA, Aβ/pE3/1 coated, detection with JRF/cAβ42/26-HRPO. On the procedure:
as §1, §2

Another experiment concerns the target T3, human Aβ1-42 peptide (human).
T3 construct: Synthetic peptide; also called full-length human (Aβ1-42)
The description is as above. How it is done:
as §1, §2

In experiment [1] the target is T4, human Aβ3pE-40 peptide (human, pyroglutamate at the third residue of Aβ (N-terminal residue of this peptide)).
T4 construct: Synthetic peptide (AnaSpec)
Briefly: sandwich ELISA, antibody coated, peptide standard, detection with JRF/cAβ40/28-HRPO. On the procedure:
(§3) For the selected Aβ3pE monoclonal antibodies, the sensitivity for detection of Aβ3-40 (SEQ ID NO:24) (AnaSpec, Fremont, USA) and Aβ3pE-40 (SEQ ID NO:22) (AnaSpec, Fremont, USA) was evaluated in a sandwich assay using synthetic peptides as standards.
(§4) Standards of Aβ3-40 (SEQ ID NO:24) and Aβ3pE-40 (SEQ ID NO:22) peptides were dissolved in dimethylsulphoxide (DMSO) (Sigma) at 0.1 mg/mL and stored at −80° C. For use in ELISA, peptides were further diluted in 0.1% casein in PBS down to 1 μg/mL. […] Standards were incubated overnight at 4° C. together with HRPO-labeled secondary antibody. After overnight incubation, the plates were washed and the assay was developed with Quantablu substrate (Pierce, Rockford, Ill.) according to the manufacturer's recommendations.

Experiment [2] has as its target T5, human Aβ3-40 peptide (human).
T5 construct: Synthetic peptide (AnaSpec), N-truncated, no pyroglutamate
The description is as above. On the procedure: as §3, §4

Experiment [3] concerns the target T4, human Aβ3pE-40 peptide. Briefly: sandwich ELISA: Aβ/pE3/1 coated as capture, peptide titrated, detection with JRF/cAβ40/28-HRPO, net OD 450 nm. On the procedure:
as §1, §2

Experiment [4] has as its target T5, human Aβ3-40 peptide. The experiment is described as above. How it is done:
as §1, §2

Another experiment concerns the target T6, human Aβ1-40 peptide (human).
T6 construct: Synthetic peptide
Described as above. How it is done:
as §1, §2

Experiment [5] has as its target T4, human Aβ3pE-40 peptide. Nature of the experiment: SPR (Biacore T200), single cycle kinetics, antibody captured by anti-mouse antibody, peptide 3.125-50 nM, 1:1 fit, mean of n = 6. How it is done:
Immobilization of the anti-mouse antibody was performed via amine coupling on a CM5 sensor chip following the manufacturer's protocol. […] The surface was regenerated with 10 mM glycine HCl at pH 1.7 for at least 180 sec and additional 60 sec. Human Aβ (1-40) peptide was used as a negative control.
Affinity measurements were performed using an optical biosensor T200 (Biacore®). Kinetic analysis was performed according to 1:1 binding fitting model with Biacore T200 Evaluation Software (version 2.0).
(In general: In SPR one partner is held on a chip, and binding of the other changes the refractive index at the surface.)

T3 sequence (peptide, as listed by the source): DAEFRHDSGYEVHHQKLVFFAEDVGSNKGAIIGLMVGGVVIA

B1: Aβ/pE3/1 (antibody, mouse IgG2a, kappa, V domains shown)
VH: QVQLQQPGAELVRPGASVKLSCKTSGYTFTRYWINWVKQRPGQGLEWIGNIRPSDSYTNYNQKFKDKATLTVDKSSSTAYMQLNRPTSEDSAVYYCTREGAYSDYETYWGQGTLVTVSA
VL: not shown
notes: Murine monoclonal; also called Clone 1; antibody from clone 1
As to B1, the binding result in the experiment with rodent Aβ3pE-40 is reported as “no binding (tested: up to 10 ng/mL)”; in the experiment with human Aβ3-42 peptide, “binds”; in the experiment with human Aβ1-42 peptide, “no binding (tested: up to 10 ng/mL)”; in the experiment with human Aβ1-40 peptide it was “no binding (tested: 10000 pg/ml (LOG 4))”. Besides, the figures for the EC50 with human Aβ3pE-40 peptide [1] and with human Aβ3-40 peptide [2] were 0.026 nM and 0.355 nM, respectively. Further, the results for the “EC50 (read off the curve)” value with human Aβ3pE-40 peptide [3] and with human Aβ3-40 peptide [4] were around 0.1 ng/mL and around 1 ng/mL, respectively. In the experiment with human Aβ3pE-40 peptide [5], this molecule returned a Kd of 0.853 nM.
